Experimental findings from US20210079056A1 are described below.

Assay [1] deals with rat ANP receptor (NPR-A) (rat) (UniProt P18910). As to the kind of experiment: cell-based or functional assay.
Assay [2] concerns the target rat CNP receptor (NPR-B) (rat) (UniProt P16067). The assay is described as follows: cell-based or functional assay.

Sequence of rat ANP receptor (NPR-A) (rat) (P18910 29-1057): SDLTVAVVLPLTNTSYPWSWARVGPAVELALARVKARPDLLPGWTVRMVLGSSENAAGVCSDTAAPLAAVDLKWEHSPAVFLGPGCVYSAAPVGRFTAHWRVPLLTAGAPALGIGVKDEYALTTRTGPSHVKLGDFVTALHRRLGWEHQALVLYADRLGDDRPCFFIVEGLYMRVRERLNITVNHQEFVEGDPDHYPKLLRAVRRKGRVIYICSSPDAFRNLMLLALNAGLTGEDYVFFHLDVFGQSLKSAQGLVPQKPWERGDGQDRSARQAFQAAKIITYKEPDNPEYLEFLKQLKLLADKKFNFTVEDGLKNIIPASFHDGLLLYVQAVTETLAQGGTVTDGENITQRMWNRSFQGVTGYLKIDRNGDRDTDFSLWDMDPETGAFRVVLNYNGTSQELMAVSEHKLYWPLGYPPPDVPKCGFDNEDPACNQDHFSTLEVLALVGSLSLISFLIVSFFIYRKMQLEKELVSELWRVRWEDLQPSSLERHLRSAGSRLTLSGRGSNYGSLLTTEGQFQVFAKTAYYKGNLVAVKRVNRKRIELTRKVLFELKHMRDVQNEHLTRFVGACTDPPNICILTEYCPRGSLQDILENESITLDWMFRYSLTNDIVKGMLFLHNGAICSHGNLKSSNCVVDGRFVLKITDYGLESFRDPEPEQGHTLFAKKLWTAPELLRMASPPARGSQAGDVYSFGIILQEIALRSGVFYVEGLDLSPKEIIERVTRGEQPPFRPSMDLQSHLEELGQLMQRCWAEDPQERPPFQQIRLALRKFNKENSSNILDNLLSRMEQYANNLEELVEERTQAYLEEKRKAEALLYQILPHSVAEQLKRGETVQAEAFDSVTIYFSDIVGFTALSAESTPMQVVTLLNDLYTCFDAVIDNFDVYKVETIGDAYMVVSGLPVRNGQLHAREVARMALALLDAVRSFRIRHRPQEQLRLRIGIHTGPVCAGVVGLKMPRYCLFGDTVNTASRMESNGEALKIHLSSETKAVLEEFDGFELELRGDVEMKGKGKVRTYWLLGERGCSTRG
Sequence of rat CNP receptor (NPR-B) (rat) (P16067 17-1047): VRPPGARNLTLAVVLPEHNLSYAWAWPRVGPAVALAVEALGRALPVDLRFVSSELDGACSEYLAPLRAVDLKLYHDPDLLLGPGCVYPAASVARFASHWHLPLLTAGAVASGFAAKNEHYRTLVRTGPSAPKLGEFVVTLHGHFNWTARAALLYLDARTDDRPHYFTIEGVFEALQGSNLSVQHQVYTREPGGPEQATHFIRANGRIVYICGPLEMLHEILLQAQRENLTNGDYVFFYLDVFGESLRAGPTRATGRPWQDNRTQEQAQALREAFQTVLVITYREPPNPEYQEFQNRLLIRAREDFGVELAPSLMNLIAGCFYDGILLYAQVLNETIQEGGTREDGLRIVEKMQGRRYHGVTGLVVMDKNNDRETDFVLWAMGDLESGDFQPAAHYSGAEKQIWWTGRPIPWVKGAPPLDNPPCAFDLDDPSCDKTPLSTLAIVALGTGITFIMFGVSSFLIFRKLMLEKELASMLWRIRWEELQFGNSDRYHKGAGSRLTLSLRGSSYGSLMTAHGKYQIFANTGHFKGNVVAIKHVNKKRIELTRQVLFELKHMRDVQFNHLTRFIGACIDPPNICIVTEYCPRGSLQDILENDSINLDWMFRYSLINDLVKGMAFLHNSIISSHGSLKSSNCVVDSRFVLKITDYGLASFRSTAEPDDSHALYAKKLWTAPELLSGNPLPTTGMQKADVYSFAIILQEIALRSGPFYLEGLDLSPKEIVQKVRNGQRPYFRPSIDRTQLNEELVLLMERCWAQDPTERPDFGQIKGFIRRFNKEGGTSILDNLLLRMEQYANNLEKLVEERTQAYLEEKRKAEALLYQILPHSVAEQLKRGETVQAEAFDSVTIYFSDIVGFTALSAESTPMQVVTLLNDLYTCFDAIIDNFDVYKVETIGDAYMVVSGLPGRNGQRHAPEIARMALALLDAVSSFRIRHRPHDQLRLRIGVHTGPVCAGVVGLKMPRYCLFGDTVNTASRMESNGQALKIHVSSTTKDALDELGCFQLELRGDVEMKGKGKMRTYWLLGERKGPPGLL

With ANP (Bachem, H-2100) (peptide), in assay [1], the EC50, fluorescence of cGMP reporter cells was found to be 0.22 nM.
On to BNP (Bachem, H-5968) (peptide), for which the EC50, fluorescence of cGMP reporter cells in assay [1] came to 2.9 nM.
Regarding CNP (Bachem, H-1296) (peptide), the EC50, luminescence of cGMP reporter cells in assay [2] is 0.024 nM.
